Experimental data taken from paper PMC9907207 (Nature Communications, 2023).
Where two headings read alike, the source gives them in different places.

What was measured:
bat RaTG12-CoV RBD = bat RaTG12-CoV RBD (Bat coronavirus RaTG13 (printed as …, UniProt A0ABF7PLN6))
[1] = target: T1, SARS-CoV-2 RBD (residues 319-541), ancestral strain (SARS-CoV-2, UniProt P0DTC2)
SARS-CoV-1 RBD = SARS-CoV-1 RBD (SARS-CoV (SARS-CoV-1), isolate not …, UniProt P59594)
[2] = target: T2, C-terminally His-tagged SARS-CoV-2 RBD (residues 333-528) (SARS-CoV-2, UniProt P0DTC2); test: crystal structure; conditions: both partners purified
T2 construct: source: expressed and purified as for the other RBDs (Expi293, Talon resin)

[3] = target: T1, SARS-CoV-2 RBD (residues 319-541), …; test: BLI; conditions: both partners purified

B1: GAR01 (antibody, V domains shown)
VH: QVQLVQSEGGVVQPGRSLRLSCTASGFTFSSYGMHWVRQAPGKGLEWVALISYDGSDKYYADSVKGRFTISRDNSKNTLYLQMNSLRPEDTAVFYCAKGGWYGSSSGFDYWGQGTLVTVSS
VL: DIQMTQSPSSLSASVGDRVTITCQASQDISNYLNWYQQKPGKAPKLLIYDASNLETGVPSRFSGSGSGTDFIFTISSLQPEDIATYYCQQYHDVPRTFGQGTKVEIK
B1: binds (bat RaTG12-CoV RBD); binds [1]; binds (SARS-CoV-1 RBD).

B2: GAR13 (antibody, V domains shown)
VH: EVQLVESGGGLVQPGGSLRLSCAASGFTFSNYDMHWVRQVTGKGLEWVSLIGTSGDTYYPGSVKGRFTISRDNAKNSLYLQMNSLRADDTAVYYCVRAAFDDHNIYSWFDSWGQGTLVTVSS
VL: DIQMTQSPSSLSASVGDRVTITCRASQSIGRYLNWYQQKPGKAPKLLIYTASSLQSGVPSRFSGSGSGTEFTLTISSLQPEDFATYYCQQSYNIPPLTFGGGTKVEIK
B2: binds (bat RaTG12-CoV RBD); binds [1]; binds (SARS-CoV-1 RBD).

B3: GAR07 (antibody, V domains shown)
VH: EVQLVQSGGGLVQPGGSLRLSCAASEFIVSSNYMSWVRQAPGKGLEWVSVIYSGGSTFYADSVKGRFTISRDNSKNTLHLQMNSLRVEDTAVYYCARDRGDRFDYWGQGTLVTVSS
VL: not shown
B3: binds [1].

B4: GAR11 (antibody, V domains shown)
VH: EVQLVQSGTEVKKPGSSVKVSCEASGGTFSKYAITWVRQAPGQGLEWMGGIIPIFGTANYAQKFQDRVKITADEITSIAYMELNSLSSEDTAVYYCARDNRGRGFGEILSYYYGMDVWGQGTTVTVSS
VL: SALTQPASVSGSPGQSITISCTGTSSDVGGYNYVSWYQQHPGKAPKLMIYDVATRPSGVSDRFSGSKSGNTASLTISGLQAEDEADYYCSSYTSSNTLAFGGGTKLTVL
B4: binds (bat RaTG12-CoV RBD); binds [1]; binds (SARS-CoV-1 RBD).

B5: GAR12 Fab (Fab, V domains shown)
VH: EVQLVQSGGGLVQPGGSLRLSCAASGFTFSSYAMSWVRQAPGKGLEWVLSISGSGGSTYYADSVKGRFTISIDNSKKTVYLQMNSLRAEDTAVYYCAKSGEQQLVQAEYFHHWGQGTLVTVSS
VL: DIQMTQSPSTLSASVGDRVTITCRASQSIGRWLAWYQQKPGKAPKLLIYDASSLESGVPSRFSGSGFGTEFTLTISSLQPDDFATYYCQQCDSLLTFGGGTKLEIK
notes: also called GAR12 Fab fragment; source: ExpiCHO, purified (Talon resin, S200 SEC)
B5: binds [2].

B6: GAR12, human IgG1 monoclonal antibody (antibody, V domains shown)
VH: EVQLVQSGGGLVQPGGSLRLSCAASGFTFSSYAMSWVRQAPGKGLEWVLSISGSGGSTYYADSVKGRFTISIDNSKKTVYLQMNSLRAEDTAVYYCAKSGEQQLVQAEYFHHWGQGTLVTVSS
VL: DIQMTQSPSTLSASVGDRVTITCRASQSIGRWLAWYQQKPGKAPKLLIYDASSLESGVPSRFSGSGFGTEFTLTISSLQPDDFATYYCQQCDSLLTFGGGTKLEIK
notes: source: ExpiCHO, purified (Protein G resin)
B6: binds [3].

B7: GAR05, human IgG1 monoclonal antibody (antibody, V domains shown)
VH: EVQLVQSGGDLVQPGGSLRLSCAVSGFTVSRNYMTWVRQAPGRGLEWVSLIYPGGSAFYADSVKGRFTISRDNSKNTLYLQMNSLRVEDTAVYYCARDPVSTGHYHDSDYWGQGTLVTVSS
VL: DIQMTQSPSALSASVGDRVTITCQASQDINKFLNWYQQKPGKAPKLLIYDASNLETGVPSRFSGGGSGTDFTFTISSLQPEDIATYYCHQYDNLPRTFGQGTKVELK
notes: as for B6
B7 was tested, and the Kd [3] was 0.54 nM.

B8: 10G4 Fab (Fab, V domains shown)
VH: QVQLVESGGGVVQPGRSLRLSCAASGFTFSSYGMHWVRQAPGKGLEWVAVIWYDGSDKYYADSVKGRFTISRDNSKNTLYLQINSLRAEDTAMYYCAREATAGFDYWGQGNLVTVSS
VL: NIQMTQSPSAMSASVGDRVTITCRARQDISSYLAWFQQKPGKVPKHLIYAASTLLSGVPSRFSGSGSGTEFTLTISSLQPEDFATYYCLQHNSYPYTFGQGTKLEIN
notes: also called additional antibody Fab (10G4)
B8: binds [2].

B9: GAR18 (antibody, V domains shown)
VH: QVQLQESGPGLVKPSETLSLTCTVSGGSISDYYWSWIRQPPGKGLEWIGYIHGSGGTNYNPSLKSRVTILVDTSKNELSLKLSSVTTADTAVYYCARDDMISGLGYYGMDVWGQGTTVTVSS
VL: EIVMTQSPATLSLSPGERVTLSCRASQSVSSYLAWYQQKPGQAPRLLIYDASNRATGIPARFSGSGSGTDFTLTISSLEPEDFAVYYCQQRSNWPSTFGPGTKVDIK
B9: binds [1].

B10: GAR06 (antibody, V domains shown)
VH: QVTLRESGPALVKPTQTLTLTCTFSGFSVSSAGMCVSWIRQPPGKALEWLARIDWDDDKYYSTSLRTRLTISTDTSKNQVVLTMTNMDPVDTATYYCARTTMTTSYYFDSWGQGTLVTVSS
VL: QSALTQPRSVSGSPGQSVTISCTGTSSDVGGYDYVSWYQHHPGKAPKVVLYDVTKRPSGVPDRFSGSKSGNTASLTISGLQAEDEADYYCCSYAGSYAGVFGTGTKVTVL
B10: binds [1].

B11: GAR04 (antibody, V domains shown)
VH: QVQLVQSGAEVKKSGASVKVSCKASGYTFTGYHMHWVRQAPGQGLEWMGWINPKSDGTNSAQKFQGRVTMTRDTSISTAYMELSRLRSDDTAVYYCARLAVREYYDNSGFYRKTTDAFDLWGQGTMVTVSS
VL: DIVMTQSPDSLAVSLGERATINCKSSQSVLYNSNNKNYLAWYQQKPGQPPKLLIYWASTRESGVPDRFSGSGSGTDFTLTINSLQAEDVAVYYCQQYSITTPPITFGQGTRLEIK
B11: binds [1].

B12: GAR03 Fab (Fab, V domains shown)
VH: QVQLVQSGAEVKKPGASVKVSCKASGYTFSSYDINWVRQAPGQGLEWMGWMSPNSGNTGYAQKFQGRVTMTRSTSMSTAYMELSSLRSEDTAVYFCARMSSSLTNYLDYWGQGTLVTVSS
VL: SYVLTQPPSVAVAPGQTARIRCGENDIGSKNVHWYQQKSGQAPVLVVYDDSDRPSGIPERFSGSNSGNTATLTISRVEAGDEADYYCQVWDSTGDHPDVVFGGGTKLTVL
notes: also called GAR03 antibody Fab; source: ExpiCHO, purified (Talon resin, S200 SEC)
B12: binds [2].

B13: GAR09 (antibody, V domains shown)
VH: EVQLVESGGGLVQPGGSLRLSCAASGFTVSYNYMSWVRQAPGKGLEWVSLIYSGGSTYYADSVKGRFTISRDSSKNTLYLQMNSLRVEDTAVYYCAREVPSRSGWSGGQGTLVTVSS
VL: DIVMTQSPSSLSASVGDRVTITCQASQDMNKYLNWYQQKPGKAPKLLIYDASNLETGVPSRFSGSGSGTNFTFTISSLQPEDIATYYCQQYDNLPPVFGPGTKVEIK
B13: binds [1].

B14: GAR15 (antibody, V domains shown)
VH: EVQLVESGGGLVQPGGSLRLSCAASGLTVSSNYMSWVRQAPGKGLEWVSVIYSGGSTFYADSVKGRFTISRHNSKNTLYLQMNSLRGDDTAVYYCARDLIYYGMDVWGQGTTVTVSS
VL: DIVMTQSPSSLSASVGDRVTITCRASQGISSSLAWYQQNPGKPPKLLIYAASTLQSGVPSRFSGSGSGTDFTLTISSLQPEDFATYYCQQLNSDLYTFGQGTKVEIK
B14: binds [1].

B15: GAR16 (antibody, V domains shown)
VH: EVQLVESGGGVVQPGGSLRLSCAASGFTFSNYDMHWVRQATGKGLEWVSAIGTAGDTYYPDSVKGRFTISRDNAKNSLYLQMNSLRAEDTAVYYCTRVVHSSDWTSWSAGIHNWFDSWGQGTLVTVSS
VL: DIVMTQSPSSLSASVGDRVSITCRTSQSIRTYLNWYQQKPGKAPKLLIYASSSLQSGVPSRFSGSGSGTDFTLSISSLQPEDFATYYCQQSYSMPPWTFGQGTKLEIK
B15: binds (bat RaTG12-CoV RBD); binds [1]; binds (SARS-CoV-1 RBD).

B16: GAR20 (antibody, V domains shown)
VH: QVQLQQWGAGLLKPSETLSLTCAVYGGSFSDFYWSWIRQPPGKGLEWIGQIDHSGSPNYNPSLKSRVTMSVDTSKNHFSLRLTSMTAADTAVYYCAKGPRYGSGSFDPLGQGTLVTVSS
VL: SYELTQPPSVSVAPGQTARITCGGDNIGSKTVHWYQQKPGQAPVLVVYDDGDRPSGIPERFSGSNPGNTATLTISRVEAGDEADYYCQVWDSSSDSVVFGGGTELTVL
B16: binds (bat RaTG12-CoV RBD); binds [1]; binds (SARS-CoV-1 RBD).

B17: S2H97, class 5 monoclonal antibody (antibody, V domains shown)
VH: QVRLVQSGAEVKKSGESLKISCKGSGYSFTSYWIGWVRQMPGKGLEWMGIIYPGDSDTRYSPSFQGQVTISADKSISTVYLQWSSLKASDTAMYYCARQWSHYTYDYYYWGQGTLVTISS
VL: QSVLTQPASVSGSPGQSITISCTGISSDVGGYNSVSWYQQHPGKAPKLMIYDVTNRPSGVSNRFSGSKSGNTASLTISGLQAEDEADYYCSSYTSSSTPPYVFGTGTKVSVL
B17: binds [3].

B18: GAR17 (antibody, V domains shown)
VH: EVQLVESGGGLGQPGGSLRLSCAASGFNFSNYAMSWVRQAPGKGLEWISTVGGSGDSTYYADSVKGRFTISIDNSKNRLYLQMNSLRSEDTAVYYCAKELAVMPPYFYYYAMDVWGQGTTVTVSS
VL: QPVLTQPPSASGTPGQRVTISCSGTTSNVGSTYVYWYQQLPGTAPKLLIYRYNQRPSGVPDRFSGSKSGTSASLVISGLRSDDEAVYYCATWDDSRHVVFGGGTKLTVL
B18: binds [1].

B19: GAR14 (antibody, V domains shown)
VH: EVQLVESGGGLVQPGGSLRLSCAASGFTFSRYDMHWVRQTTGKGLEWVSAIGTAGDTYYPDSVKGRFTISRENAKNSLHLQMNSLRVGDTAVYFCARAVDCSDISCYSNWYFDLWGRGTLVTVSS
VL: DIQLTQSPSSLSASVGDRVTITCRASQTISSFLNWYQQKPGKAPHLLIYAASSLQSGVPSRFSGSGSGTDFTLTITNLQPEDFATYYCQQSYSTPPITFGQGTRLEIK
B19: binds (bat RaTG12-CoV RBD); binds [1]; binds (SARS-CoV-1 RBD).
